Ends that are not written are not given here.
T1: Aurora A_(D274N) kinase domain (human, UniProt O14965 122-403, D274N)
T1 construct: Aurora A kinase, human, kinase domain residues 122-403, kinase dead D274N; theoretical mass 33.8 kDa; Cloned into pHAT5 in frame with a C-terminal 6xHis-tag; also called kinase dead human Aurora A D274N mutant; source: E. coli BL21(DE3), purified (HisTrap HP, Superdex 75 SEC); not shown: His6, C-terminal, kept
T1 sequence (looked up): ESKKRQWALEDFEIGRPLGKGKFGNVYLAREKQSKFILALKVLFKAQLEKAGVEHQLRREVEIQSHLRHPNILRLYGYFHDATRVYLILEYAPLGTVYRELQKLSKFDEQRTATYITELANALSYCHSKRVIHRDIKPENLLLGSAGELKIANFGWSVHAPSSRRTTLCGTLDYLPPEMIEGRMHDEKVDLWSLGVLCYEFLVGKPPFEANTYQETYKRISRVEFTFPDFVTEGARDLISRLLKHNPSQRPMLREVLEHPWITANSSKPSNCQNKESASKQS

B1: Alexa Fluor 488-TPX2_((7–43)) peptide (peptide)
peptide: LSYSYDAPSDFINFSSLDDEGDTQNIDSWFEEKANLENLKGGGC(Alexa Fluor 488‑maleimide)QM
notes: residue before the TPX2 stretch in the printed peptide; TPX2, human, residues 7-43; C-terminal extension of the printed peptide with the cysteine that is labelled; As m10, labelled; the methods speak of 'free N-terminal cysteines' but the only cysteine of the printed peptide is near its C-terminus; also called Alexa Fluor 488-labeled TPX2 peptide; labeled wild-type TPX2 peptide; source: E. coli …
B2: Aurora A wild-type kinase domain (untagged) (domain or fragment)
chain: FEIGRPLGKGKFGNVYLAREKQSKFILALKVLFKAQLEKAGVEHQLRREVEIQSHLRHPNILRLYGYFHDATRVYLILEYAPLGTVYRELQKLSKFDEQRTATYITELANALSYCHSKRVIHRDIKPENLLLGSAGELKIADFGWSVHAPSSRRTTLCGTLDYLPPEMIEGRMHDEKVDLWSLGVLCYEFLVGKPPFEANTYQETYKRISRVEFTFPDFVTEGARDLISRLLKHNPSQRPMLREVLEHPWI
B3: linear TPX2_((7–43)) peptide (peptide)
peptide: LSYSYDAPSDFINFSSLDDEGDTQNIDSWFEEKANLENLKGGGCQM
notes: residue before the TPX2 stretch in the printed peptide; TPX2, human, residues 7-43; C-terminal extension of the printed peptide with the cysteine handle; Used free in ITC and immobilised through the cysteine on CM5 in SPR; also called TPX2 peptide; TPX-2 peptide; source: E. coli BL21(DE3), KSI fusion (pET31b), inclusion bodies, Ni-NTA, CNBr cleavage, reverse-phase HPLC

What was measured:
Details in all cases: both partners purified
[1] = target: T1, Aurora A_(D274N) kinase domain; assay: fluorescence polarisation; fluorescence anisotropy, direct titration of kinase (CK2α 2 nM-2 μM; Aurora A D274N 2 nM-1.5 μM) into labelled peptide or display protein; 10 mM HEPES pH 7.4, 500 mM NaCl, 1 mM DTT, 0.05% P20; room temperature; 1:1 model
[2] = target: B1; assay: fluorescence polarisation; fluorescence anisotropy, direct titration of Aurora A wild type into 10 nM Alexa Fluor 488-TPX2 peptide, 25°C, HEPES pH 7.4, 0.1 M Mg(CH3COO)2, 100 mM NaCl, 1 mM ATP, 1 mM DTT, 0.01% P20; quadratic single-site equation
[3] = target: T1, Aurora A_(D274N) kinase domain; assay: ITC; itc200, 25°C, 10 mM HEPES pH 7.4, 500 mM NaCl, 0.05% P20; 50 μM titrant into 5 μM Aurora A D274N, 100 μM CK2β peptide or RAD-CK2β into 10 μM CK2α; single-site model
[4] = target: T1, Aurora A_(D274N) kinase domain; assay: SPR; Biacore T100, CM5, peptides or cRAD display proteins immobilised through their cysteine (240-400 RU), kinase as analyte 2.5 nM-2.5 μM, 25°C, 10 mM HEPES pH 7.4, 500 mM NaCl, 0.05% P20; 1:1 steady-state affinity model; CK2α data analysed at 200 s post-injection

Q: For B1, which Kd [1] is on record?
A: 74 nM

Q: How did the Kd [2] turn out when B2 was run?
A: 2.1 nM

Q: What does the source list for B3?
A: Kd [3]: 115 nM; Kd [4]: 72 nM
